From publication PMC4963090 (PLoS ONE, 2016)

T1: head-only RSV F immunogen i-210 (Human respiratory syncytial virus A, …, S155C | S190F | V207L | S290C | L258K)
T1 construct: RSV fusion (F) glycoprotein, subtype A strain A2, F1 segment of domain III (head); numbers count on: PDB entry 4JHW; linker; RSV fusion (F) glycoprotein, subtype A strain A2, F2 segment of domain III (head); linker to the foldon; bacteriophage T4 foldon trimerization domain (of fibritin); Circular permutant F1-GGSGG-F2-GGSGGSG-foldon; A signal peptide for secretion was added; Tags are …
T1 chain: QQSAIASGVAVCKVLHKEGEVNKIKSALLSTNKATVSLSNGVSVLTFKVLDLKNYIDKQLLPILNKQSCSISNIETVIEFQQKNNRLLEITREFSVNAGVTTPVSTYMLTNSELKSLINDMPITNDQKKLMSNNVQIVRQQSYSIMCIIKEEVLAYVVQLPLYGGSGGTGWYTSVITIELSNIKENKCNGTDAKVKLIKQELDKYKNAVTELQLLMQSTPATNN

T2: head-only RSV F immunogen i-273 (Human respiratory syncytial virus A, …, S155C | S190F | V207L | S290C | L258K | L273K)
T2 construct: RSV fusion (F) glycoprotein, subtype A strain A2, F1 segment of domain III (head); numbers count on: PDB entry 4JHW; linker; RSV fusion (F) glycoprotein, subtype A strain A2, F2 segment of domain III (head); Circular permutant F1-GG-F2; A signal peptide for secretion was added; Tags are thrombin-cleavable: held by the His-tag in the kinetic BLI; said to be cleaved before SEC, EM and immunisation; …
T2 chain: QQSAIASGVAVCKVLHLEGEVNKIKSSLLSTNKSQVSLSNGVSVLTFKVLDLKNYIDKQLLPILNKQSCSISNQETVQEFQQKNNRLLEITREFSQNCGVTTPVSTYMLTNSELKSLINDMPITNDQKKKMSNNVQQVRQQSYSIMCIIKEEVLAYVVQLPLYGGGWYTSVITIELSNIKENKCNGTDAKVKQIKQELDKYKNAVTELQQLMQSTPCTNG

T3: head-only RSV F immunogen i-693 (Human respiratory syncytial virus A, …, S155C | S190F | V207L | S290C | S155C | S190F | V207L | S290C)
T3 construct: RSV fusion (F) glycoprotein, subtype A strain A2, F2 segment of domain III, first monomer; numbers count on: PDB entry 4JHW; linker between F2 and F1; RSV fusion (F) glycoprotein, subtype A strain A2, F1 segment, first monomer; linker between the two identical monomers; RSV fusion (F) glycoprotein, subtype A strain A2, F2 segment of domain III, second monomer; RSV fusion (F) glycoprotein, subtype …
T3 chain: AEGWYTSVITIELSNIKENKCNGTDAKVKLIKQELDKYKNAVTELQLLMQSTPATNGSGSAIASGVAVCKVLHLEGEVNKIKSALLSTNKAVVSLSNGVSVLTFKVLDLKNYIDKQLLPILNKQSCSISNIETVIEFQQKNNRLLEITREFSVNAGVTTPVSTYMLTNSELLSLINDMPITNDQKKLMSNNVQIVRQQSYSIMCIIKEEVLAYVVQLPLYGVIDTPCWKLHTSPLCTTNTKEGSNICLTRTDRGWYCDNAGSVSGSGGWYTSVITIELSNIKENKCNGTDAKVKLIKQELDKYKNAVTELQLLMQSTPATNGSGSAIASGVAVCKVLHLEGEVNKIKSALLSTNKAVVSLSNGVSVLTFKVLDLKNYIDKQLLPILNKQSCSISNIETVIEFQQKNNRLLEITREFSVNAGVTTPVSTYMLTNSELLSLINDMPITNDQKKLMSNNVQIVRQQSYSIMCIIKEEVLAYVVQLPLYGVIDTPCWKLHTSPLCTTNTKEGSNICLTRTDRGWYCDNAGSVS

T4: head-only RSV F immunogen i-447 (Human respiratory syncytial virus A, …, S190F | S155C | S290C)
T4 construct: RSV fusion (F) glycoprotein, subtype A strain A2, F1 segment of domain III (head); numbers count on: PDB entry 4JHW; linker; RSV fusion (F) glycoprotein, subtype A strain A2, F2 segment of domain III (head); MTQ-F1-GGPG-F2; A signal peptide for secretion was added; Tags are thrombin-cleavable: held by the His-tag or Strep-tag in BLI; said to be cleaved before SEC, EM and immunisation; also called …
T4 chain: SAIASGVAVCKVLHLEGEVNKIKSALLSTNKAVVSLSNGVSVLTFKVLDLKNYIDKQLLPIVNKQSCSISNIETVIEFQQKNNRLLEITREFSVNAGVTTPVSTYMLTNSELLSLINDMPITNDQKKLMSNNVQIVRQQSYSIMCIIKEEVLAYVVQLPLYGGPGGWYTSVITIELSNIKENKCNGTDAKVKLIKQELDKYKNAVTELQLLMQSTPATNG


Columns and labels:
[1] = biological target: head-only RSV F immunogen i-273 (respiratory syncytial virus subtype A, strain A2) (UniProt P03420); assay: negative-stain electron microscopy; immunogens alone or mixed with D25 and/or motavizumab Fabs; 20 mM HEPES pH 7.0, 150 mM NaCl; uranyl formate; reference-free 2D class averages
[2] = biological target: head-only RSV F immunogen i-273 (respiratory syncytial virus subtype A, strain A2) (UniProt P03420); assay: BLI; head-only variants (50 ug/ml) held on anti-His-tag (HIS1K) tips; Fabs in solution 0.016-0.5 uM; 30°C, PBS + 1% BSA; global 1:1 fit
[3] = biological target: head-only RSV F immunogen i-210 (respiratory syncytial virus subtype A, strain A2 | bacteriophage T4) (UniProt P03420); assay: as above
[4] = biological target: T1, head-only RSV F immunogen i-210; assay: as above; settings: both partners purified
[5] = biological target: T2, head-only RSV F immunogen i-273; assay: as above; settings: both partners purified
[6] = biological target: T3, head-only RSV F immunogen i-693; assay: as above; settings: both partners purified
[7] = biological target: T4, head-only RSV F immunogen i-447; assay: as above; settings: both partners purified

| Molecule | percent of particles with bound Fab [1] [%] | Kd [2] [nM] | Kd [3] [nM] | Kd [4] [nM] | Kd [5] [nM] | Kd [6] [nM] | Kd [7] [nM] |
| --- | --- | --- | --- | --- | --- | --- | --- |
| motavizumab Fab | < 10 | 1360 | 761 | – | – | – | – |
| D25 Fab (Fab, V domains shown, Antigenic site Ø-directed antibody; also called Fab D25; source: HEK 293-F, co-transfected heavy and light chain plasmids; IgG on Protein A, digested with Lys-C or HRV3C protease, Fab purified by SEC) VH: QVQLVQSGAEVKKPGSSVMVSCQASGGPLRNYIINWLRQAPGQGPEWMGGIIPVLGTVHYAPKFQGRVTITADESTDTAYIHLISLRSEDTAMYYCATETALVVSTTYLPHYFDNWGQGTLVTVSS VL: DIQMTQSPSSLSAAVGDRVTITCQASQDIVNYLNWYQQKPGKAPKLLIYVASNLETGVPSRFSGSGSGTDFSLTISSLQPEDVATYYCQQYDNLPLTFGGGTKVEIK | – | – | – | 0.7 | 33.3 | 9.9 | 0.7 |
| motavizumab Fab (Fab, V domains shown, Antigenic site II-directed antibody; also called Fab motavizumab; source: HEK 293-F, co-transfected heavy and light chain plasmids; IgG on Protein A, digested with Lys-C or HRV3C protease, Fab purified by SEC) VH: QVTLRESGPALVKPTQTLTLTCTFSGFSLSTAGMSVGWIRQPPGKALEWLADIWWDDKKHYNPSLKDRLTISKDTSKNQVVLKVTNMDPADTATYYCARDMIFNFYFDVWGQGTTVTVSS VL: DIQMTQSPSTLSASVGDRVTITCSASSRVGYMHWYQQKPGKAPKLLIYDTSKLASGVPSRFSGSGSGTEFTLTISSLQPDDFATYYCFQGSGYPFTFGGGTKVEIK | – | – | – | – | – | 6.5 | 0.5 |
